Positions count from the first letter of the chain named.

The assay deals with T1, human GPC3 (human, UniProt P51654 25-563).
T1 construct: range 25-563; soluble analyte; also called soluble human GPC3; glypican 3
Kind of assay: SPR.

T1 sequence (P51654 25-563 limits assumed): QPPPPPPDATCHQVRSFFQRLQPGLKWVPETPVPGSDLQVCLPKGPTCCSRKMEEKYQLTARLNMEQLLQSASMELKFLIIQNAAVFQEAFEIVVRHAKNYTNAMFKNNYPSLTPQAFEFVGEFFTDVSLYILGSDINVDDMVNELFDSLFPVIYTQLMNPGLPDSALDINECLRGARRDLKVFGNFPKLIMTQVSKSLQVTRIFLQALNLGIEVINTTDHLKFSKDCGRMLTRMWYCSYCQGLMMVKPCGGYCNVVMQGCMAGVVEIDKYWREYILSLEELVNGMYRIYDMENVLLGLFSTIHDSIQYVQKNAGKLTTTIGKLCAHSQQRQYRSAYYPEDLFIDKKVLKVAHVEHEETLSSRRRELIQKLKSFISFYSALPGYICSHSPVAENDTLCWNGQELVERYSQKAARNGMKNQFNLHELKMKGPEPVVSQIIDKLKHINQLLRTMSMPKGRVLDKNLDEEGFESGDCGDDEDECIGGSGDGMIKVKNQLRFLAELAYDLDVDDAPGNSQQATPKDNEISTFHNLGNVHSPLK

B1: GCH032-G1dh/none-Hi-Kn010G3/L0000-k0 (antibody, V domains shown)
VH: QVQLVQSGAEVKKPGASVKVSCKASGYTFTDYEMHWIRQPPGQGLEWIGAIDGKTPDTAYSEKFKGRVTLTADKSTSTAYMELSSLTSEDTAVYYCTRFYSYTYWGQGTLVTVSS
VL: DIVMTQSPLSLPVTPGEPASISCRSSQSLVHSNRNTYLHWYQQKPGQAPRLLIYKVSNRFSGVPDRFSGSGSGTDFTLKISRVEAEDVGVYYCGQGTQVPYTFGQGTKLEIKR
notes: one-arm
For orientation: Kd means a measure of binding affinity in units of concentration. The low end stands for a tighter complex, the high end for a looser complex. For the molecule B1, binding was characterised by a dissociation constant (Kd) of 5.74 nM.

B2: GCH056-G1dh/none-Hi-Kn010G3/L0201-k0 (antibody, V domains shown)
VH: B1 VH with K19T, Q43E, K54E, E62Q, K65E
VL: B1 VL with S28P, L29P
notes: one-arm
Turning to B2, the Kd is 1.16 nM.

B3: GCH061-G1dh/none-Hi-Kn010G3/L0000-k0 (antibody, V domains shown)
VH: B1 VH with I37V, P40A, E62Q
VL: B1 VL
notes: one-arm
B3: the Kd came to 5.13 nM.

B4: GCH054-G1dh/none-Hi-Kn010G3/L0203-k0 (antibody, V domains shown)
VH: B1 VH with K19T, Q43E, K54E
VL: B1 VL with L29P, L38I
notes: one-arm
As for B4, the affinity, expressed as Kd, was 2.48 nM.

B5: GCH055-G1dh/none-Hi-Kn010G3/L0222-k0 (antibody, V domains shown)
VH: B1 VH with K19T, Q43E, K54E, E62D
VL: B1 VL with L29P, L38I, H39Q, G94Y
notes: one-arm
Take B5: binding was put at a Kd of 0.0039 nM.

B6: GCH068-G1dh/none-Hi-Kn010G3/L0000-k0 (antibody, V domains shown)
VH: B1 VH with K19T, Q43E
VL: B1 VL
notes: one-arm
As for B6, the Kd worked out at 6.23 nM.

B7: GCH060-G1dh/none-Hi-Kn010G3/L0222-k0 (antibody, V domains shown)
VH: B1 VH with K19T, T30E, Q43E, K54E, E62Q, K65E, S88E
VL: B1 VL with L29P, L38I, H39Q, G94Y
notes: one-arm
For the molecule B7, the Kd came to 0.000642 nM.

B8: GCH066-G1dh/none-Hi-Kn010G3/L0000-k0 (antibody, V domains shown)
VH: B1 VH with K19T, Q43E, K54W
VL: B1 VL
notes: one-arm
In turn, B8 gave a Kd of 4.29 nM.

B9: GCH065-G1dh/none-Hi-Kn010G3/L0000-k0 (antibody, V domains shown)
VH: B1 VH with K19T, Q43E, K54P
VL: B1 VL
notes: one-arm
B9: the dissociation constant Kd was determined as 1.41 nM.

B10: GCH039-G1dh/none-Hi-Kn010G3/L0000-k0 (antibody, V domains shown)
VH: B1 VH with E62Q, S84E
VL: B1 VL
notes: one-arm
B10 registered a Kd of 4.95 nM.

B11: GCH056-G1dh/none-Hi-Kn010G3/L0000-k0 (antibody, V domains shown)
VH: B1 VH with K19T, Q43E, K54E, E62Q, K65E
VL: B1 VL
notes: one-arm
As for B11, binding was put at a Kd of 5.03 nM.

B12: GCH057-G1dh/none-Hi-Kn010G3/L0000-k0 (antibody, V domains shown)
VH: B1 VH with K19T, Q43E, K54E, K65E
VL: B1 VL
notes: one-arm
As for B12, the Kd came to 5.61 nM.

B13: GCH065-G1dh/none-Hi-Kn010G3/L0201-k0 (antibody, V domains shown)
VH: B1 VH with K19T, Q43E, K54P
VL: B1 VL with S28P, L29P
notes: one-arm
In turn, B13 returned a Kd of 0.0774 nM.

B14: GCH035-G1dh/none-Hi-Kn010G3/L0000-k0 (antibody, V domains shown)
VH: B1 VH with E62Q, T69E
VL: B1 VL
notes: one-arm
For the molecule B14, the affinity, expressed as Kd, was 4.94 nM.

B15: GCH067-G1dh/none-Hi-Kn010G3/L0000-k0 (antibody, V domains shown)
VH: B1 VH with K19T, Q43E, K54Y
VL: B1 VL
notes: one-arm
B15: binding was put at a Kd of 5.24 nM.

B16: GCH059-G1dh/none-Hi-Kn010G3/L0000-k0 (antibody, V domains shown)
VH: B1 VH with K19T, Q43E, K54E, E62Q, K65E, S88E
VL: B1 VL
notes: one-arm
The molecule B16 came in with a Kd of 5.7 nM.

B17: GCH055-G1dh/none-Hi-Kn010G3/L0000-k0 (antibody, V domains shown)
VH: B1 VH with K19T, Q43E, K54E, E62D
VL: B1 VL
notes: one-arm
Molecule B17 registered a Kd of 5.6 nM.

B18: GCH057-G1dh/none-Hi-Kn010G3/L0222-k0 (antibody, V domains shown)
VH: B1 VH with K19T, Q43E, K54E, K65E
VL: B1 VL with L29P, L38I, H39Q, G94Y
notes: one-arm
As to B18, the dissociation constant (Kd) was found to be 0.00185 nM.

B19: GCH056-G1dh/none-Hi-Kn010G3/L0011-k0 (antibody, V domains shown)
VH: B1 VH with K19T, Q43E, K54E, E62Q, K65E
VL: B1 VL with S28P
notes: one-arm
On to B19, for which the Kd was 4.31 nM.

B20: GCH054-G1dh/none-Hi-Kn010G3/L0222-k0 (antibody, V domains shown)
VH: B1 VH with K19T, Q43E, K54E
VL: B1 VL with L29P, L38I, H39Q, G94Y
notes: one-arm
The molecule B20 returned a Kd of 0.0315 nM.

B21: GCH055-G1dh/none-Hi-Kn010G3/L0212-k0 (antibody, V domains shown)
VH: B1 VH with K19T, Q43E, K54E, E62D
VL: B1 VL with S25P, L29P, G94Y
notes: one-arm
Turning to B21, the Kd is 0.614 nM.

B22: GCH053-G1dh/none-Hi-Kn010G3/L0000-k0 (antibody, V domains shown)
VH: B1 VH with K19T, Q43E, K54E, S61E, E62Q
VL: B1 VL
notes: one-arm
As for B22, the Kd was 4.05 nM.

B23: GCH054-G1dh/none-Hi-Kn010G3/L0000-k0 (antibody, V domains shown)
VH: B1 VH with K19T, Q43E, K54E
VL: B1 VL
notes: one-arm
In the case of B23, the Kd worked out at 5.3 nM.

B24: GCH054-G1dh/none-Hi-Kn010G3/L0201-k0 (antibody, V domains shown)
VH: B1 VH with K19T, Q43E, K54E
VL: B1 VL with S28P, L29P
notes: one-arm
Regarding B24, the Kd was determined as 1.08 nM.

B25: GCH040-G1dh/none-Hi-Kn010G3/L0000-k0 (antibody, V domains shown)
VH: B1 VH with E62Q, S85E
VL: B1 VL
notes: one-arm
B25: the affinity, expressed as Kd, was 4.8 nM.

B26: GCH064-G1dh/none-Hi-Kn010G3/L0000-k0 (antibody, V domains shown)
VH: B1 VH with E62Q, T87R
VL: B1 VL
notes: one-arm
Take B26: the Kd was 4.14 nM.

B27: GCH042-G1dh/none-Hi-Kn010G3/L0000-k0 (antibody, V domains shown)
VH: B1 VH with E62Q, S88E
VL: B1 VL
notes: one-arm
Molecule B27 yielded a Kd of 4.89 nM.

B28: GCH062-G1dh/none-Hi-Kn010G3/L0000-k0 (antibody, V domains shown)
VH: B1 VH with I48M, E62Q
VL: B1 VL
notes: one-arm
B28: the Kd stood at 3.73 nM.

B29: GCH073-G1dh/none-Hi-Kn010G3/L0000-k0 (antibody, V domains shown)
VH: B1 VH with K19T, Q43E, K54P, E62Q, K65E
VL: B1 VL
notes: one-arm
In turn, B29 gave a Kd of 2 nM.

B30: GCH043-G1dh/none-Hi-Kn010G3/L0000-k0 (antibody, V domains shown)
VH: B1 VH with E62Q, T91E
VL: B1 VL
notes: one-arm
Molecule B30 returned a Kd of 3.74 nM.

B31: GCH034-G1dh/none-Hi-Kn010G3/L0000-k0 (antibody, V domains shown)
VH: B1 VH with E62Q, K65E
VL: B1 VL
notes: one-arm
B31: binding was characterised by a dissociation constant (Kd) of 5.09 nM.

B32: GCH045-G1dh/none-Hi-Kn010G3/L0000-k0 (antibody, V domains shown)
VH: B1 VH with E62Q, V93E
VL: B1 VL
notes: one-arm
Turning to B32, the Kd was found to be 4.63 nM.

B33: GCH054-G1dh/none-Hi-Kn010G3/L0212-k0 (antibody, V domains shown)
VH: B1 VH with K19T, Q43E, K54E
VL: B1 VL with S25P, L29P, G94Y
notes: one-arm
For the molecule B33, the Kd was 0.517 nM.

(Values after patent US20250066503A1, “CELL INJURY INDUCING THERAPEUTIC DRUG FOR USE IN CANCER THERAPY” (CHUGAI SEIYAKU KABUSHIKI KAISHA, priority 2016, published 2025).)
